For assay [1], the system named is target cells expressing their respective target antigen. Kind of assay: Jurkat-NFAT-GFP assay, co-culture with target cells expressing the respective target antigen (Table 28). The following applies: Jurkat-NFAT-GFP cells expressing the CAR; cell line(s) giving greater % GFP positive cells than parental.
Assay [2] relates to MPL-expressing HEL.92.1.7 (HEL) cells. Kind of assay: Jurkat-NFAT-EGFP reporter assay, co-culture with HEL cells (Table 25). The assay is classed as cell-based, human. The following applies: FACS. From the text:
(§1) Cells were subsequently co-cultured with MPL-expressing HEL.92.1.7 (HEL) cells. […] CAR construct with HEL cells. The experiment was repeated by co-culturing the Jurkat-NFAT-EGFP cells with either RAJI cells, which have weak MPL expression, or with RAJI-MPL cells that were engineered to ectopically express human MPL receptor.
Background: In a reporter assay the amount or activity of a reporter protein is the signal.

The test system of the next assay is RAJI-MPL cells. The experiment in a line: Jurkat-NFAT-EGFP reporter assay, co-culture with RAJI-MPL or RAJI-vector cells (Table 25). The assay is classed as cell-based, human. The following applies: RAJI-MPL cells compared with RAJI-vector cells.
Excerpt: as §1

Assay [3] relates to HEL cells stably expressing GLuc. The experiment in a line: GLuc cell death assay, HEL-GLuc target cells.
Protocol: The blood samples to isolate Peripheral blood mononuclear cells (PBMCs) were obtained from healthy de-identified adult donors. PBMC were isolated from buffy coats by Ficoll-Hypaque gradient centrifugation and re-suspended in XVIVO medium (Lonza) supplanted with 10 ng/ml soluble anti-CD3, 10 ng/ml soluble anti-CD28 and 100 IU recombinant human-IL2. […] The PBMC expressing the indicated CARs and uninfected PBMC were co-cultured with HEL-GLuc target cells for 4 h and lysis of target cells measured by the single-step homogenous GLuc assay by injecting 0.5× CTZ assay buffer as described above.
Cells were selected with puromycin and expanded.
Cells were subsequently co-cultured overnight with HEL.92.1.7 cells that had been engineered to express GLuc.
Assay [4] concerns Jurkat cells stably expressing MPL and GLuc. The experiment in a line: GLuc cell death assay, Jurkat-MPL-GLuc target cells. The following applies: T cells, puromycin selected, E:T 10:1, 4 hours.
In assay [5] the test system is RAJI cells stably expressing GLuc. The experiment in a line: GLuc cell death assay, RAJI-GLuc target cells.
Excerpt: Cells were left unselected or selected with puromycin and expanded.

From patent US20240166755A1, “CHIMERIC ANTIGEN RECEPTORS TARGETING CANCER” (University of Southern California, priority 2016, published 2024) come the findings set out here.

“Also recorded” adds a separate entry of the source.

B1: CD8SP-CD324-hSC10-17-(vL-vH)-Myc-BBz-T2A-PAC(052516-A07)[SEQ ID NO: 1555] (protein)
chain: MALPVTALLLPLALLLHAARPDVVMTQSPLSLPVTLGQPASISCRSSQSIVHSDGNTYLEWYQQRPGQSPRRLIYKVSNRFSGVPDRFSGSGSGTDFTLKISRVEAEDVGVYYCFQGSHAPWTFGGGTKVEIKGGGGSGGGGSGGGGSEVQLVESGGGLVQPGGSLRLSCAASGFTFSSYGMHWVRQAPGKGLEWVAYITTRSSTIYYADSVKGRFTISRDNAKNSLYLQMNSLRAEDTAVYYCTREPLTGYYAMDYWGQGTSVTVSSTREQKLISEEDLAKPTTTPAPRPPTPAPTIASQPLSLRPEACRPAAGGAVHTRGLDFACDIYIWAPLAGTCGVLLLSLVITLYCKRGRKKLLYIFKQPFMRPVQTTQEEDGCSCRFPEEEEGGCELRVKFSRSADAPAYQQGQNQLYNELNLGRREEYDVLDKRRGRDPEMGGKPRRKNPQEGLYNELQKDKMAEAYSEIGMKGERRRGKGHDGLYQGLSTATKDTYDALHMQALPPRSSGSGEGRGSLLTCGDVEENPGPHMTEYKPTVRLATRDDVPRAVRTLAAAFADYPATRHTVDPDRHIERVTELQELFLTRVGLDIGKVWVADDGAAVAVWTTPESVEAGAVFAEIGPRMAELSGSRLAAQQQMEGLLAPHRPKEPAWFLATVGVSPDHQGKGLGSAVVLPGVEAAERAGVPAFLETSAPRNLPFYERLGFTVTADVEVPEGPRTWCMTRKPGA
modifications: listed as DNA
Regarding B1, the “Positive Cell Line on co-culture assay” value in assay [1] was “MDAMB-231”.

B2: CD8SP-175-(vL-vH)-Myc-CD28z-T2A-PAC(031615-Q04): CAR construct targeting MPL, 175 scFv, CD28 costimulatory domain (protein)
chain: MALPVTALLLPLALLLHAARPDQIVLTQSPAIMSASPGEKVTISCSASSSVSYMYWYQQKPGSSPKPWIYRTSNLASGVPARFSGSGSGTSYSLTISNMEAEDAAAYYCQQYHSYPTTFGGGTKLEVKGGGGSGGGGSGGGGSEVQLVESGGGLVQPKGSLKLSCAASGFSFNTYAMNWVRQAPGKGLEWIAHIRSKSNNFATYYADSVKDRFSISRDASENILFLQMNNLKTEDTAMYYCVRQGGDFPMDYWGQGTSVTVSSTREQKLISEEDLKIEVMYPPPYLDNEKSNGTIIHVKGKHLCPSPLFPGPSKPFWVLVVVGGVLACYSLLVTVAFIIFWVRSKRSRLLHSDYMNMTPRRPGPTRKHYQPYAPPRDFAAYRSRVKFSRSADAPAYQQGQNQLYNELNLGRREEYDVLDKRRGRDPEMGGKPRRKNPQEGLYNELQKDKMAEAYSEIGMKGERRRGKGHDGLYQGLSTATKDTYDALHMQALPPRSSGSGEGRGSLLTCGDVEENPGPHMTEYKPTVRLATRDDVPRAVRTLAAAFADYPATRHTVDPDRHIERVTELQELFLTRVGLDIGKVWVADDGAAVAVWTTPESVEAGAVFAEIGPRMAELSGSRLAAQQQMEGLLAPHRPKEPAWFLATVGVSPDHQGKGLGSAVVLPGVEAAERAGVPAFLETSAPRNLPFYERLGFTVTADVEVPEGPRTWCMTRKPGA
modifications: listed as DNA
notes: CAR construct targeting MPL, 175 scFv, CD28 costimulatory domain
For the molecule B2, the “EGFP expression (NFAT-EGFP reporter)” value (in assay [2]; in the assay with RAJI-MPL cells) was “strongest” each time. Moreover, the “killing of HEL-GLuc cells” value in assay [3] (CAR-expressing PBMC, 4 h, versus uninfected PBMC) is given as “increased killing”. Also, the “GLuc activity (lysis of target cells)” value is reported as “stronger” in assay [3] (T cells, puromycin selected, E:T 10:1, 4 hours) and “stronger” in assay [4].

B3: CD8SP-DLL3-hSC16-13-(vL-vH)-Myc-BBz-T2A-PAC(052516-D07)[SEQ ID NO: 1584] (protein)
chain: MALPVTALLLPLALLLHAARPDIQMTQSPSSLSASVGDRVTITCSASSSVSYMYWYQQKPGKAPKLLIYLTSNLASGVPSRFSGSGSGTDFTLTISSLQPEDFATYYCQQWRSNPFTFGQGTKLEIKRGGGGSGGGGSGGGGSQITLKESGPTLVKPTQTLTLTCTFSGFSLSTSGMGVGWIRQPPGKALEWLAHIWWDDVKRYSPSLKSRLTITKDTSKNQVVLTMTNMDPVDTATYYCARIVSFDNDVVSAMDYWGQGTLVTVSSTREQKLISEEDLAKPTTTPAPRPPTPAPTIASQPLSLRPEACRPAAGGAVHTRGLDFACDIYIWAPLAGTCGVLLLSLVITLYCKRGRKKLLYIFKQPFMRPVQTTQEEDGCSCRFPEEEEGGCELRVKFSRSADAPAYQQGQNQLYNELNLGRREEYDVLDKRRGRDPEMGGKPRRKNPQEGLYNELQKDKMAEAYSEIGMKGERRRGKGHDGLYQGLSTATKDTYDALHMQALPPRSSGSGEGRGSLLTCGDVEENPGPHMTEYKPTVRLATRDDVPRAVRTLAAAFADYPATRHTVDPDRHIERVTELQELFLTRVGLDIGKVWVADDGAAVAVWTTPESVEAGAVFAEIGPRMAELSGSRLAAQQQMEGLLAPHRPKEPAWFLATVGVSPDHQGKGLGSAVVLPGVEAAERAGVPAFLETSAPRNLPFYERLGFTVTADVEVPEGPRTWCMTRKPGA
modifications: listed as DNA
On to B3, for which the “Positive Cell Line on co-culture assay” value in assay [1] is “LAN5, SKMEL31,; also recorded: SKMEL317”.

B4: CD8SP-CD19Bu12-(vL-vH)-Myc-BBz-T2A-PAC(082815-P08): CD19 CAR with scFv from humanized CD19 antibody huCD19-Bu12, 41BB and CD3z (protein)
chain: MALPVTALLLPLALLLHAARPDEIVLTQSPATLSLSPGERATLSCSASSSVSYMHWYQQKPGQAPRLLIYDTSKLASGIPARFSGSGSGTDFTLTISSLEPEDVAVYYCFQGSVYPFTFGQGTKLEIKRGGGGSGGGGSGGGGSQVQLQESGPGLVKPSQTLSLTCTVSGGSISTSGMGVGWIRQHPGKGLEWIGHIWWDDDKRYNPALKSRVTISVDTSKNQFSLKLSSVTAADTAVYYCARMELWSYYFDYWGQGTLVTVSSTREQKLISEEDLAKPTTTPAPRPPTPAPTIASQPLSLRPEACRPAAGGAVHTRGLDFACDIYIWAPLAGTCGVLLLSLVITLYCKRGRKKLLYIFKQPFMRPVQTTQEEDGCSCRFPEEEEGGCELRVKFSRSADAPAYQQGQNQLYNELNLGRREEYDVLDKRRGRDPEMGGKPRRKNPQEGLYNELQKDKMAEAYSEIGMKGERRRGKGHDGLYQGLSTATKDTYDALHMQALPPRSSGSGEGRGSLLTCGDVEENPGPHMTEYKPTVRLATRDDVPRAVRTLAAAFADYPATRHTVDPDRHIERVTELQELFLTRVGLDIGKVWVADDGAAVAVWTTPESVEAGAVFAEIGPRMAELSGSRLAAQQQMEGLLAPHRPKEPAWFLATVGVSPDHQGKGLGSAVVLPGVEAAERAGVPAFLETSAPRNLPFYERLGFTVTADVEVPEGPRTWCMTRKPGA
modifications: listed as DNA
Consider B4, for which the “cell death (increase in Gluc activity)” value in assay [5] (RAJI-pLenti-Gluc cells incubated with the CAR-T cells) was “significant induction of cell death”. Moreover, in assay [5] (T cells with or without puromycin selection, E:T 10:1, 96 hours), the “GLuc activity (lysis of target cells)” value was “increase in GLuc activity”.
